In patent publication US20220363623A1, “IMAGING AND THERAPEUTIC COMPOSITIONS” (priority 2019, published 2022):

Key:
LNCap cells = assay: Cell binding and internalization studies in LNCap cells; assay type: cell-based, human; conditions: 89Zr tracers, 60 min, 37° C.
Procedure: Cell binding and internalization studies. LNCap cells (150,000/well) were plated in RPMI 1640 medium containing 10% FBS into wells of a 24 well plate pre-coated with 0.05% poly-L-lysine and incubated overnight at 37° C. and 5% CO2. The following day cells were washed twice with PBS and incubated for 1 hour at 37° C. in 1 mL per well internalisation buffer (MEM, 1% FBS). The buffer was then replaced with 1 ml per well of a warmed solution containing 0.5 μCi ^89Zr-DFOsq-PSMA tracers in internalisation buffer. Cells were incubated in triplicate for 5, 15, 30 or 60 min at 37° C. and 5% CO2. At each time point, cells were washed twice with ice-cold PBS and the washes collected for counting (unbound fraction). Cells were then incubated twice for 10 min in saline containing 10 μM PMPA and each wash collected for counting (surface bound fraction). The cells were then solubilised in 1 M NaOH (internalised fraction). Total protein content was determined in this fraction using a BCA protein assay kit (Pierce). A Perkin Elmer 2480 Wizard automatic gamma counter was then used to measure Zr-89 radioactivity in unbound, surface bound and internalised fractions. Surface bound and internalised fractions were expressed as percentage of total added radioactivity per mg of protein. Non-specific membrane binding and internalisation was determined by incubating cells with the ^89Zr-DFOSq-PSMA tracers in the presence of excess (10 μM) PMPA. ^89Zr-DFOSq-PSMA tracers uptake at 60 min was also determined in DU145 cells (seeded at 125,000 cells/well), a PSMA negative cell line. The raw data was analysed using GraphPad Prism 7.

[1] = system: LNCaP (human PSMA expressing prostate cancer cell line) tumour; assay: in vivo; design: species or system mice; conditions: mouse
Procedure: (§1) PET-CT imaging and Biodistribution. Male Balb/c nude mice (age 8.5 weeks) or Male NSG mice (age 12 weeks) were inoculated subcutaneously on the right flank with 6×10^6 LNCap cells in PBS:Matrigel (1:1). Mice were weighed and tumours measured twice weekly using electronic callipers. Tumour volume (mm^3) was calculated as length×width×height×π/6. Mice were assigned for imaging and biodistribution studies (tumour volumes: 85-450 mm3). ^89Zr-DFOSq-PSMA tracers were then administered intravenously by tail vein injection to 6 mice. At 1, 2, 4 and 18 hr post injection three mice were anaesthetised using isoflurane and placed on the imaging bed of a G8 PET/CT scanner (Perkin Elmer). A CT scan was performed and followed immediately by a 10 min static PET scan. PET images were reconstructed using the maximal likelihood and expectation maximization (ML-EM) algorithm. PET Images were analysed using VivoQuant (Invicro) and Tumour SUVmax or Tumour SUVmax/background average (TBR) determined. After imaging at 18 hr mice were euthanised and selected tissues were excised, weighed and counted using a Capintec (Captus 4000e) gamma counter. A separate cohort of 3 mice was harvested at 1 hr post injection for biodistribution analysis as above. The data was analysed using GraphPad Prism 7 and differences between tracers analysed using a t-test.
(§2) ^89Zr Labelled tracers: The ^89Zr radiolabelled PSMA tracers were injected intravenously via tail vein to LNCaP (human PSMA expressing prostate cancer cell line) tumour bearing mice. At 1, 2, 4 and 18 h post-injection the mice were anaesthetised with isoflurane and imaged over 10 min. The representative PET images of mice injected with ^89Zr radiolabelled PSMA tracers at 1 and 18 hr are shown in FIG. 1 and quantitation of the Tumour SUVmax for each tracer is shown in FIG. 2a. […] There was a trend for higher tumour SUVmax for (4) tracer compared to all other tracers at all time points. […] A comparison of tumour uptake values is shown in FIG. 2b and the tissue biodistribution data for the tracers at 1 and 18 hr is summarised in FIG. 3.
(§3) ^68Ga Labelled tracers: Representative PET images of mice injected with ^68Ga(1) and ^68Ga(4) are shown in FIG. 4 and quantitation of the tumour SUVmax is shown in FIG. 5a. […] Tumour uptake of ^68Ga(4) was 1.6 and 1.8 fold higher than ^68Ga(1) at 1 and 2 hr p.i., respectively. This is consistent with the biodistribution results where tumour % ID/g for ^68Ga(4) was higher than ^68Ga(1) at 1 hr (10.8±1.3 vs 6.5±0.4) and at 2.5 hr (8.6±1.0 vs 4.1±0.5) p.i. […] (6.5±0.4% ID/g at 1 hr vs 4.1±0.5% ID/g at 2.5 hr). In contrast, there was no significant change in ^68Ga(4) tumour retention at 1 and 2.5 p.i. (10.8±1.3% ID/g vs […], FIG. 5b).

[2] = system: LNCaP (human PSMA expressing prostate cancer cell line) tumour; design: species or system mice; conditions: mouse, in vivo
Procedure: as §1, §2, §3

in vivo = assay: in vivo; design: species or system mice; conditions: male, mouse, total radioactivity
Procedure: as §1, §2, §3

Row | SMILES | Cell Uptake % AR/mg protein (60 min) Surface bound (LNCap cells) [% AR/mg protein] | Cell Uptake % AR/mg protein (60 min) internalized (LNCap cells) [% AR/mg protein] | Tumour Uptake % ID/g 1 h pi ([1]; male, iv, 1 h) [% ID/g] | Tumour Uptake % ID/g 18 h pi ([1]; male, iv, 18 h) [% ID/g] | Tumour SUVmax 1 h pi [2] | Tumour SUVmax 18 h pi [2] | Tumour SUVmax Clearance % [2] [%] | tissue uptake at 1 h (in vivo; Tumour Uptake % ID/g 1 h pi) [%ID/g] | tissue uptake at 2.5 h (in vivo; Tumour Uptake % ID/g 2.5 h pi) [%ID/g] | Tumour Uptake % ID/g 1 h pi [1] [% ID/g] | Gut uptake in PET images [2] | Kidney uptake in PET images [2] | LNCap tumour uptake in PET images [2] | Tumour SUVmax 2 h pi [2]
1 | CC(=O)N(O)CCCCCNC(=O)CCC(=O)N(O)CCCCCNC(=O)CCC(=O)N(O)CCCCCNc1c(NCCN(CCNC(=O)CCCC(=O)NCCCCC(NC(=O)NC(CCC(=O)O)C(=O)O)C(=O)O)CCNC(=O)CCCC(=O)NCCCCC(NC(=O)NC(CCC(=O)O)C(=O)O)C(=O)O)c(=O)c1=O (single isomer, unassigned) [^89Zr(3), metal not drawn] | 2.2 ± 0.14 | 3.8 ± 0.39 | 5.9 | 2.5 ± 0.22 | 1.7 ± 0.12 | 0.6 ± 0.06 | 65 | – | – | – | – | – | – | –
2 | CC(=O)N(O)CCCCCNC(=O)CCC(=O)N(O)CCCCCNC(=O)CCC(=O)N(O)CCCCCNc1c(NCCN(CCNC(=O)CCCC(=O)NCc2ccc(C(=O)NCCCCC(NC(=O)NC(CCC(=O)O)C(=O)O)C(=O)O)cc2)CCNC(=O)CCCC(=O)NCc2ccc(C(=O)NCCCCC(NC(=O)NC(CCC(=O)O)C(=O)O)C(=O)O)cc2)c(=O)c1=O (single isomer, unassigned) [^68Ga(4), metal not drawn] | – | – | – | – | 1.6 ± 0.10 | – | – | 10.8 ± 1.26 | 8.6 ± 0.93 | 10.8±1.3 | no gut uptake | high kidney uptake | moderate tumour uptake | 1.5 ± 0.09
